Experimental findings from patent publication US20200038523A1 (TECHNISCHE UNIVERSIT T M NCHEN, published 2020) are described below.

For the assay, the target named is T1, rhPSMA, extracellular part of human prostate-specific membrane antigen (residues 44-750) with native … (human, UniProt Q04609 44-750).
T1 construct: range 44-750; Secreted from Schneider S2 insect cells, glycosylated; also called wild-type rhPSMA; rhGCPII
Nature of the assay: ELISA: rhPSMA coated on MaxiSorp plate, Anticalin dilution series, detection via Strep-tag II with StrepTactin/AP, absorbance at 405 nm. The source says: Binding activities of Anticalins selected from the original nave library (A) or resulting from subsequent affinity maturation of the A3 variant (B) were compared in an ELISA. A 96-well MaxiSorp plate was coated with rhPSMA (or ovalbumin as a negative control, not shown) and purified Anticalin variants were applied in dilution series. Anticalin binding was detected using StrepTactin/AP conjugate, followed by chromogenic reaction. Absorption was plotted against the Anticalin concentration and data were analyzed by curve fitting. Binding curves for the best performing clones A3 and A3A5 are shown as solid lines. (CE) SPR sensograms measured for Anticalins A3, A3A5 and A3A5.1 on a BIAcore 2000 instrument. […]
50 μL of rhPSMA (5 μg/mL in TBS) was directly adsorbed onto the surface of a MaxiSorp 96-well plate overnight at 4° C. […] The plates were washed three times and bound Anticalins were detected with StrepTactin-AP as described further above. The data were analyzed using Prism 5 software (GraphPad) and absorption values (A) were fitted according to the formula ΔA=Aₘₐₓ[Lₜₒₜ]/(KD+[Lₜₒₜ]) with the concentration of the applied lipocalin variant [Lₜₒₜ] and the dissociation constant KD.
Specific binding activities of selected Anticalins toward rhPSMA as well as apparent affinity constants were initially determined by ELISA in 96-well Maxisorp plates coated with the recombinant wild-type PSMA protein. […]

T1 sequence (Q04609 44-750 limits assumed): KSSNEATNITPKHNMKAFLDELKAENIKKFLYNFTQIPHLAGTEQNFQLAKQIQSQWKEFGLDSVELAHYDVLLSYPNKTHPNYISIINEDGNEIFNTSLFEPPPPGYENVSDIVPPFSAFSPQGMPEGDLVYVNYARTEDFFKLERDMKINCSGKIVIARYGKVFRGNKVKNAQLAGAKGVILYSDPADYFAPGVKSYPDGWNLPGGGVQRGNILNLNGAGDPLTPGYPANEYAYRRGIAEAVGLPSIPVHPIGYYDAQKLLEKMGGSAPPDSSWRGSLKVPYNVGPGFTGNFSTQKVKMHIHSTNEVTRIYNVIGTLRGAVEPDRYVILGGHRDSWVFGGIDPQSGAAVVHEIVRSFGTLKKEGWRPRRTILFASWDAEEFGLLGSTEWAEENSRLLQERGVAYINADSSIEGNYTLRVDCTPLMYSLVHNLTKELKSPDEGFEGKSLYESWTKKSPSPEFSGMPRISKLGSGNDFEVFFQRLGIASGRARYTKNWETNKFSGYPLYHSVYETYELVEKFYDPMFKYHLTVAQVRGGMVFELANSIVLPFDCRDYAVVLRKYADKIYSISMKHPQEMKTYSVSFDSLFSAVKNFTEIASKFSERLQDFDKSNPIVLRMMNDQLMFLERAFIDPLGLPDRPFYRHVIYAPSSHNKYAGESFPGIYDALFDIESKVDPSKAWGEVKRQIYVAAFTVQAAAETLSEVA

B1: Anticalin candidate H5 (designed binder)
chain: QDSTSDLIPAPPLSKVPLQQNFQDNQFHGKWYVVGTAGNWPLREDKDPHKMSATIYELKEDKSYNVTNVQFSSKKCLYFIGTFVPGSQPGEFTLGPIKSAPGQTSGLVRVVSTNYNQHAMVFFKQVIQNREAFIITLYGRTKELTSELKENFIRFSKSLGLPENHIVFPVPIDQCIDG
notes: not shown: C-terminal Strep-tag II
Take B1: the “EC50 (read off the curve)” value is around 6 nM.

B2: Anticalin candidate A2 (designed binder)
chain: QDSTSDLIPAPPLSKVPLQQNFQDNQFHGKWYVVGRAGNKPLREDKDPLKMWATIYELKEDKSYNVTIVWFDFKKCWYRISTFVPGSQPGEFTLGRIKSAPGVTSGLVRVVSTNYNQHAMVFFKYVFQNREWFHITLYGRTKELTSELKENFIRFSKSLGLPENHIVFPVPIDQCIDG
notes: as for B1
Take B2: the “EC50 (read off the curve)” value is around 10 nM.
